Laboratory results as given in the supplement of paper PMC10724198.
± gives the standard deviation of the averaged measurements.

Tested on: Saccharomyces cerevisiae
Experiment: protein stability index of tFT-peptide fusion (C-terminal peptide) (PSI (0-1 scale)); higher = more stable (slower turnover)
Settings: temperature: 30 C
Method: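 MPS profiling in S. cerevisiae of the yeast C-terminome library: the last 12 aa of each annotated ORF are fused to the C-terminus of a sfGFP-mCherry timer, after a GGGS linker. Cells are FACS-sorted into 8 mCherry/sfGFP bins and deep-sequenced. PSI runs from 0 (unstable) to 1 (stable); wild type and das1Δ backgrounds, two technical replicates each.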

[1] = genetic background: das1 deletion

Sequence	protein stability index [1]	protein stability index (genetic background: wild type)
ALSKVGIYTIAN [PAU10 C-terminal 12 aa]	0.702 ± 0.013	0.675 ± 0.042
DSYKLMHSHIHP [IZH1 C-terminal 12 aa]	0.691 ± 0.01	0.6721 ± 0.0056
KPGTIIHFSTNR [ASK1 C-terminal 12 aa]	0.71325 ± 0.00059	0.691 ± 0.034
YDENSKPKGTKE [FUN30 C-terminal 12 aa]	0.6948 ± 0.0051	0.704 ± 0.016
RKTIRRDLASLV [TMA108 C-terminal 12 aa]	0.691 ± 0.01	0.571 ± 0.031
DIISFTSTLHGG [URM1 C-terminal 12 aa]	0.727 ± 0.015	0.705 ± 0.059
LMAKRFQTGSLK [RTS3 C-terminal 12 aa]	0.7028 ± 0.00076	0.716 ± 0.043
SRFDYLTRKNAL [CBK1 C-terminal 12 aa]	0.6716 ± 0.0016	0.71 ± 0.051
KKKKQIKNFQFG [YMR290W-A C-terminal 12 aa]	0.687 ± 0.0087	0.656 ± 0.05
ANFNDFYDAFYN [RSC30 C-terminal 12 aa]	0.732 ± 0.019	0.707 ± 0.026
NKDTMQLFRAYL [CIN2 C-terminal 12 aa]	0.7695 ± 0.0014	0.834 ± 0.04
FQERIKNKNILK [CWC27 C-terminal 12 aa]	0.739 ± 0.008	0.729 ± 0.0083
SSSLSPSLSSWP [YJL020W-A C-terminal 12 aa]	0.739 ± 0.051	0.778 ± 0.17
ISIVACALWLVF [DCW1 C-terminal 12 aa]	0.288 ± 0.003	0.291 ± 0.0036
KNLWMRENEITI [HES1 C-terminal 12 aa]	0.711 ± 0.059	0.71 ± 0.018
LYGQRFLATGFQ [AIM19 C-terminal 12 aa]	0.714 ± 0.0097	0.705 ± 0.024
HFLQKFFKLFDN [YMR052C-A C-terminal 12 aa]	0.734 ± 0.0093	0.687 ± 0.015

Sequence	protein stability index [1]	protein stability index (genetic background: wild type)
QHDEKPFYKRMF [HXT8 C-terminal 12 aa]	0.723 ± 0.026	0.666 ± 0.045
FPKLALVCTIFS [YGR146C-A C-terminal 12 aa]	0.369 ± 0.019	0.403 ± 0.009
KFDEKTATLVDE [YDL144C C-terminal 12 aa]	0.692 ± 0.027	0.675 ± 0.022
KKLDGEVLCRVK [MRPS8 C-terminal 12 aa]	0.659 ± 0.021	0.6437 ± 0.0055
MNAAENEVKKEK [SUR2 C-terminal 12 aa]	0.688 ± 0.016	0.669 ± 0.027
FRSSAGLRSSKV [MIC10 C-terminal 12 aa]	0.742 ± 0.016	0.706 ± 0.011
IVLPENIPLLYK [YJL195C C-terminal 12 aa]	0.694 ± 0.037	0.672 ± 0.023
VVEALRDAVGDV [NBP35 C-terminal 12 aa]	0.706 ± 0.014	0.696 ± 0.02
RTRPPTAVAHIA [DUG3 C-terminal 12 aa]	0.6938 ± 0.0057	0.337 ± 0.0086
YAELAERKKQEN [COX9 C-terminal 12 aa]	0.6916 ± 0.0031	0.6914 ± 0.0022
KWFRENDGKKAN [TSC10 C-terminal 12 aa]	0.7006 ± 0.0047	0.6772 ± 0.0044
SQRPAKGVPEGF [VPS72 C-terminal 12 aa]	0.69 ± 0.024	0.733 ± 0.051
DSTMKIWSPGYQ [STE4 C-terminal 12 aa]	0.7158 ± 0.00073	0.728 ± 0.011
EIASCSSSIYSE [DSE3 C-terminal 12 aa]	0.696 ± 0.022	0.711 ± 0.035
VYALSIKRSKLT [EPT1 C-terminal 12 aa]	0.6803 ± 0.0053	0.208 ± 0.0051
KLGLFRHIFSRK [LRE1 C-terminal 12 aa]	0.691 ± 0.012	0.704 ± 0.01
EPTKKGFLVCRM [YMR320W C-terminal 12 aa]	0.771 ± 0.037	0.702 ± 0.05
